B1: mouse PTPδ Ig1-Fn1 (residues 28-418), splice variant meA9B+ [modified: N-linked glycans] [mouse] / mouse Slitrk2 LRR1 (first leucine-rich repeat of Slit and Trk-like family member 2), wild type [modified: N-linked glycans; N-linked … (parent complex)
chain 1: ETPPRFTRTPVDQTGVSGGVASFICQATGDPRPKIVWNKKGKKVSNQRFEVIEFDDGSGSVLRIQPLRTPRDEAIYECVASNNVGEISVSTRLTVLREDQIPRGFPTIDMGPQLKVVERTRTATMLCAASGNPDPEITWFKDFLPVDTSNNNGRIKQLRSESIGGTPIRGALQIEQSEESDQGKYECVATNSAGTRYSAPANLYVRELREVRRVPPRFSIPPTNHEIMPGGSVNITCVAVGSPMPYVKWMLGAEDLTPEDDMPIGRNVLELNDVRQSANYTCVAMSTLGVIEAIAQITVKALPKPPGTPVVTESTATSITLTWDSGNPEPVSYYIIQHKPKNSEEPYKEIDGIATTRYSVAGLSPYSDYEFRVVAVNNIGRGPASEPVLTQK
chain 2: MLSGVWFLSVLTVAGILQTESRKTAKDICKIRCLCEEKENVLNINCENKGFTTVSLLQPPQYRIYQLFLNGNLLTRLYPNEFVNYSNAVTLHLGNNGLQEIRPGAFSGLKTLKRLHLNNNKLEVLREDTFLGLESLEYLQADYNYISTIEAGAFSKLNKLKVLILNDNLLLSLPSNVFRFVLLTHLDLRGNRLKVMPFAGVLEHIGGIMEIQLEENPWNCTCDLLPLKAWLDTITVFVGEIVCETPFRLHGKDVTQLTRQDLCPRK

Variants of: B1
Test: SPR equilibrium analysis; point at 4 µM PTPδ Ig1-Fn1 (highest concentration); parent: 600; read off a plot
chain 2 MLSGVWFLSVLTVAGILQTESRKTAKDICKIRCLCEEKENVLNINCENKGFTTVSLLQPPQYRIYQLFLNGNLLTRLYPNEFVNYSNAVTLHLGNNGLQEIRPGAFSGLKTLKRLHLNNNKLEVLREDTFLGLESLEYLQADYNYISTIEAGAFSKLNKLKVLILNDNLLLSLPSNVFRFVLLTHLDLRGNRLKVMPFAGVLEHIGGIMEIQLEENPWNCTCDLLPLKAWLDTITVFVGEIVCETPARLAGKDVTQLTRQDLCPRK [chain 2 F247A, chain 2 H250A] gave a response of about 460 Response unit. Work on chain 2 MLSGVWFLSVLTVAGILQTESRKTAKDICKIRCLCEEKENVLNINCENKGFTTVSLLQPPQYRIYQLFLNGNLLTRLYPNEFVNYSNAVTLHLGNNGLQEIRPGAFSGLKTLKRLHLNNNKLEVLREDTFLGLESLEYLQADYNYISTIEAGAFSKLNKLKVLILNANLLLSLPSNVFRFVLLTHLDLRGNRLKVMPFAGVLEHIGGIMEIQLEENPWNCTCDLLPLKAWLDTITVFVGEIVCETPFRLHGKDVTQLTRQDLCPRK [chain 2 D167A] yielded a response of about 100 Response unit. In the case of chain 2 MLSGVWFLSVLTVAGILQTESRKTAKDICKIRCLCEEKENVLNINCENKGFTTVSLLQPPQYRIYQLFLNGNLLTRLYPNEFVNYSNAVTLHLGNNGLQEIRPGAFSGLKTLKRLHLNNNKLEVLREDTFLGLESLEYLQADYNYISTIEAGAFSKLNKLKVLILNDNLLLSLPSNVFRFVLLTHLALRGNRLKVMPFAGVLEHIGGIMEIQLEENPWNCTCDLLPLKAWLDTITVFVGEIVCETPFRLHGKDVTQLTRQDLCPRK [chain 2 D187A], the response is reported as about 120 Response unit. chain 2 MLSGVWFLSVLTVAGILQTESRKTAKDICKIRCLCEEKENVLNINCENKGFTTVSLLQPPQYRIYQLFLNGNLLTRLYPNEFVNYSNAVTLHLGNNGLQEIRPGAFSGLKTLKRLHLNNNKLEVLREDTFLGLESLEYLQADYNYISTIEAGAFSKLNKLKVLILNDNLLLSLPSNVFRFVLLTHLDLRGNRLKVMPFAGVLEHIGGIMEIQLEANPWNCTCDLLPLKAWLDTITVFVGEIVCETPFRLHGKDVTQLTRQDLCPRK [chain 2 E215A] showed a response of about 210 Response unit. chain 2 MLSGVWFLSVLTVAGILQTESRKTAKDICKIRCLCEEKENVLNINCENKGFTTVSLLQPPQYRIYQLFLNGNLLTRLYPNEFVNYSNAVTLHLGNNGLQEIRPGAFSGLKTLKALHLNNNKLEVLREDTFLGLESLEYLQADYNYISTIEAGAFSKLNKLKVLILNDNLLLSLPSNVFRFVLLTHLDLRGNRLKVMPFAGVLEHIGGIMEIQLEENPWNCTCDLLPLKAWLDTITVFVGEIVCETPFRLHGKDVTQLTRQDLCPRK [chain 2 R114A] gave a response of about 490 Response unit.
